The labels stand for the following.
B1: Hairpin Ribozyme (parent)
chain: GUCCUCUUUCACGUGCGCGUGAAAGAGAGAAGUGAACCAGAGAAACACACGUUGUGGUAUAUUACCUGGUA

In this data set the parent is B1. Put plainly: self-cleavage, relative activity (ratio to wild type); higher = more cleavage; co-transcriptional.
Consider G34U G54C, for which the self-cleavage turned out to be 1.15.

Regarding G34U G54U, the self-cleavage was determined as 1.26. For U33C G40U, the self-cleavage worked out at 0.121. Regarding U33C G40A, the self-cleavage was determined as 0.0908.

As for A35G C46G, the self-cleavage was determined as 0.0878. As for A35G C46U, the figure is 0.145; as for G34C A71G, 1.66. Next, G34C C66G: 0.627; G34C C66U: 1.29. As for G32U U52A, the figure is 0.155. For G32U U52G, the self-cleavage turned out to be 0.0995. Next, G32U G69C: 0.136; U33G A61C: 0.041; A35G C50A: 0.326. Take A35G C50G: the self-cleavage is 0.19. Next, U33A A49G: 0.0427; A35G C38U: 0.371.

With A35G C38G, the self-cleavage amounted to 0.129. As for U33G A39G, the figure is 0.119; as for U33G A39U, 0.0926; as for G34U U63G, 0.261. As for G34U U63C, the figure is 0.589; as for U33C C38A, 0.087. As for G34U A39U, the figure is 1.14; as for G34U A39G, 1.15. On to A35C U63A, for which the self-cleavage stood at 0.13. As for A35G G56A, the figure is 0.108. As for A35G G56U, the self-cleavage came out at 0.154. As for G34A G69C, the figure is 0.402. Take G34A G69A: the self-cleavage was determined as 0.568. As for G34A C50G, the figure is 0.481.

G34U U55C: the self-cleavage was 1.36. In the case of G34C U60G, the self-cleavage was 0.828. Take G34C U60A: the self-cleavage turned out to be 1.16. As to G34C U60C, the self-cleavage is 1.41. As for G34U C48A, the self-cleavage came out at 0.497.

On to G34U C48G, for which the self-cleavage is 0.371. In the case of G34A G40U, the self-cleavage is 0.198. Next, G34A G40A: 0.407; A35G G54A: 0.477. Next, G34A C46A: 0.198. For G34C A35U, the self-cleavage came to 1.61. Turning to U33A C46U, the self-cleavage was 0.0735. As for A35G A59C, the self-cleavage came out at 0.104. Consider U33C A41G, for which the self-cleavage came to 0.193. Take A35G G40C: the self-cleavage was 0.175.

Take G34U G40U: the self-cleavage worked out at 0.7. As for G34U G57U, the figure is 1.28. Consider A35G A64U, for which the self-cleavage worked out at 0.129. Next, G34U U62A: 0.981; G34C G69U: 0.729.

Consider G34U G56A, for which the self-cleavage worked out at 0.788.

Consider U33C G57A, for which the self-cleavage was 0.242.

For A35C A47C, the self-cleavage came to 0.564. As to U33A U70C, the self-cleavage is 0.119. With U33A U70G, the self-cleavage was determined as 0.253.

In the case of U33A G69U, the self-cleavage is 0.134.

On to U33A G69A, for which the self-cleavage amounted to 0.0983. Next, U33A G69C: 0.124; G34U A35U: 1.44; U33A U55C: 0.149. Next, U33C A47C: 0.106; G34C U53C: 1.36; G34C U53A: 0.963. For G34C U53G, the self-cleavage was 1.03. As for G34A A44U, the figure is 0.113; as for G34U C46U, 0.102; as for G34U C46G, 0.397. With G34C G51C, the self-cleavage was 1.44. Next, G34A G57A: 0.207; U33G U55G: 0.0574; U33G U55A: 0.11. A35C U53A: the self-cleavage amounted to 0.995. As for A35C U53C, the figure is 0.835; as for G34U G51C, 1.49.

Consider G34A A71U, for which the self-cleavage came to 1.02. As for G34C C48A, the self-cleavage was 0.411.

Take G34C C48U: the self-cleavage stood at 0.572. Next, G34U A64U: 0.883; U33C A64G: 0.0772; U33C A64C: 0.102. As for U33A A44G, the figure is 0.16. As for U33A A44C, the figure is 0.205; as for G34A C38U, 0.655; as for A35G C48U, 0.132. For G34U G69C, the self-cleavage is 0.759. Next, G34U G69U: 1.1. Turning to G34A A39C, the self-cleavage is 0.456.

Regarding G34A A39G, the self-cleavage came to 0.768. In the case of G34A A39U, the self-cleavage was 0.304. As for G34A A64G, the figure is 0.625; as for G34C G40C, 0.188. As for U33G G56A, the figure is 0.221; as for U33C U55G, 0.418; as for A35C C37G, 0.282. U33C G68U: the self-cleavage stood at 0.258. For the variant U33C G68A, the self-cleavage came to 0.104. Next, A35G G57U: 0.205; A35G G57A: 0.222; U33G G34U: 0.0449. Next, G34C U55A: 1.16.

With G34C U55G, the self-cleavage worked out at 1.19. In the case of G34U A49G, the self-cleavage was 1.49. G34U A49U: the self-cleavage was 1. As for G34U A49C, the self-cleavage amounted to 0.433.

On to A35C A39G, for which the self-cleavage stood at 0.591. Take A35C A39C: the self-cleavage was 0.226.

For the variant U33A A59C, the self-cleavage was determined as 0.143.

For the variant U33A A59U, the self-cleavage is 0.177.

Turning to U33C G42A, the self-cleavage was 0.0915.

Turning to G34U A45G, the self-cleavage came to 0.472. In the case of U33A G54A, the self-cleavage was found to be 0.213.

For U33A G54U, the self-cleavage came out at 0.186. As to U33G U70G, the self-cleavage was determined as 0.111. Next, A35C A64G: 0.513; A35C A64C: 0.211. In the case of G34C G54A, the self-cleavage was found to be 1.2. As for U33C A44C, the figure is 0.226; as for G34A G54A, 0.745; as for G34A G54C, 0.302. Next, G34C A61G: 0.636; G34C C46U: 0.109; U33G U58G: 0.155. Next, G34A A41C: 0.826; G32U G68U: 0.114. As to G32U G68A, the self-cleavage worked out at 0.0877. As for G34U C66A, the figure is 1.02; as for G34U C66G, 0.548; as for G34U C66U, 1.31.

Turning to A35G C65U, the self-cleavage turned out to be 0.227. Next, A35G C65G: 0.221; G34U C37G: 1.01; U33G U67G: 0.0324. On to U33A A39G, for which the self-cleavage is 0.122. As for U33A A39U, the self-cleavage was 0.0937. Next, G34U A44G: 0.348; G34U A44U: 0.205; A35G G51U: 0.949. Consider A35G G51A, for which the self-cleavage was 0.964. For U33G C66U, the self-cleavage worked out at 0.21. Next, G34A A43U: 0.18; U33A A36C: 0.0569. In the case of G34A C48A, the self-cleavage turned out to be 0.122. As to G34A C48G, the self-cleavage was found to be 0.17. Next, G34A C65U: 0.673; U33A U60G: 0.0384.

In the case of U33A U60C, the self-cleavage was 0.263. Next, A35G U52A: 1.02; U33G A71G: 0.184. As for G34C U67C, the figure is 0.785; as for A35G U53G, 0.955; as for A35G U53C, 0.928. Next, G34U A61U: 1.13; U33A A45C: 0.231.

Regarding U33A A45G, the self-cleavage is 0.127.

As to A35C U55C, the self-cleavage came out at 0.0658. Next, G34U C50G: 1.12; G34U C50U: 0.913. Next, A35G C66U: 0.553; U33G A49C: 0.114. Consider U33G A49G, for which the self-cleavage is 0.135.

Regarding G34A A61U, the self-cleavage came to 0.218. On to A35C G40C, for which the self-cleavage was 0.184. With U33G G42U, the self-cleavage was found to be 0.153. On to G34A G68U, for which the self-cleavage is 0.325. Regarding A35G G42A, the self-cleavage came to 0.174. On to A35G G42C, for which the self-cleavage worked out at 0.231.

These data come from the RNAGym collection of RNA variant scans (doi:10.7554/elife.80360).
